# Several values for one entry are separate records, joined by “and”; a condition that tells them apart may be missing. Equal values may be shown once.
# Tested on: MCF10A
# Experiment: percent viability (nuclei count relative to siNT); higher = more viable cells
# Conditions: 20 nM; 72 h
# Procedure: (§1)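 After 72 h, cells were fixed and stained with Hoechst and anti-fibrillarin, and nucleoli per nucleus were counted with CellProfiler. Values are plate-adjusted percent effect for the one-nucleolus and 5+ nucleoli phenotypes, normalised to siNT (0%) and to the positive controls siNOL11 or siKIF11 (100%), as the mean of biological triplicates. Percent viability is the nuclei count relative to siNT.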
row,Sequence,percent viability [%]
1,UCCCUGAGACCCUUUAACCUGUGA [hsa-miR-125a-5p],117
2,AGGAGGACAAGUUGUGGGAU [hsa-miR-7154-3p],7.01
3,UAUUCAGGAAGGUGUUACUUAA [hsa-miR-506-5p],91
4,AUAUGGGUUUACUAGUUGGU [hsa-miR-3115],25
5,UUAGACCUAGUACACGUCCUU [hsa-miR-3684],85.2
6,CAGGCACGGGAGCUCAGGUGAG [hsa-miR-3622a-5p],27.1
7,AAUUUGGUUUCUGAGGCACUUAGU [hsa-miR-5002-5p],32.2
8,UGCAAAAGUAAUUGCAGUUUUUG [hsa-miR-548aj-5p],81.8
9,UGGUAGAGCUGAGGACA [hsa-miR-4451],16.3
10,UUUCUCUCUCCACUUCCUCAG [hsa-miR-6833-3p],28.4
11,GAGGAAACUGAAGCUGAGAGGG [hsa-miR-4496],88.3
12,UAGGGGUGGGGGAAUUCAGGGGUGU [hsa-miR-6782-5p],26.5
13,CUGGCCCUCUCUGCCCUUCCGU [hsa-miR-328],64
14,CAGCAGGGGAGAGAGAGGAGUC [hsa-miR-6510-5p],27.9
15,AGGGACGGGACGCGGUGCAGUG [hsa-miR-92b-5p],75.4
16,CAGCCCUCCUCCCGCACCCAAA [hsa-miR-4687-5p],80.6
17,GUGCUUCAUCGUAAUUAACCUUA [hsa-miR-3977],49
18,AGGGUGUGUGUGUUUUU [hsa-miR-4455],22.4
19,UCCCAGGGUCUGGUCAGAGUUG [hsa-miR-6764-5p],25.8
20,UCCAGGCAGGAGCCGGACUGGA [hsa-miR-4673],62.5
21,AACACUGGCCUUGCUAUCCCCA [hsa-miR-6757-3p],52.1
22,UCUAGGCUGGUACUGCUGA [hsa-miR-645],59.5
23,CCCAGUGUUUAGACUAUCUGUUC [hsa-miR-199b-5p],170
24,GAGUGGAUAGGGGAGUGUGUGGA [hsa-miR-6849-5p],126
25,ACUGGCAUGCUGCAUUUAUAUA [hsa-miR-4799-3p],66.3
26,ACUGGCCUGGGACUACCGG [hsa-miR-3176],54.4
27,UAGCGGGGAUUCCAAUAUUGG [hsa-miR-4781-5p],24.3
28,AGAUUGUUUCUUUUGCCGUGCA [hsa-miR-4445-5p],19.2
29,UAUAGAGAGCAGGAAGAUUAAUGU [hsa-miR-3976],78.3
30,AAAAGUAAUCACUGUUUUUGCC [hsa-miR-548y],73.4

# Tested on: MCF10A
# Experiment: one-nucleolus phenotype percent effect (relative to siNT 0% and siNOL11 100%); higher = more cells with one nucleolus (ribosome biogenesis inhibition)
# Conditions: 20 nM; 72 h
# Procedure: as §1
row,Sequence,one-nucleolus phenotype percent effect
1,CUCUAGAGGGAAGCGCUUUCUG [hsa-miR-519a-5p],-15.1%
2,AGUGCCUGAGGGAGUAAGAG [hsa-miR-550a-3-5p],3.47%
3,CACUGCAUUCCUGCUUGGCCCAG [hsa-miR-6807-3p],-9.99%
4,AAAAGCUGGGUUGAGAGGA [hsa-miR-320d],27% and 27.3%
5,AAUGUGGACUGGUGUGACCAAA [hsa-miR-4491],-0.704%
6,AGGGCCCCCCCUCAAUCCUGU [hsa-miR-296-5p],2.62%
7,UCGCAGACAGGGACACAUGGAGA [hsa-miR-6767-5p],-5.76%
8,AGGGGGCGCAGUCACUGACGUG [hsa-miR-4697-5p],5.16%
9,AAGGGAAGAUGGUGACCAC [hsa-miR-9500],15.1%
10,AGUGGUUCUUAACAGUUCAACAGUU [hsa-miR-203a-5p],-32.6%
11,CAACACCAGUCGAUGGGCUGU [hsa-miR-21-3p],35.5%
12,UGAGAACUGAAUUCCAUAGGCU [hsa-miR-146b-5p],0.774%
13,CACACAAGUGGCCCCCAACACU [hsa-miR-4731-3p],8.2%
14,UCUCAGCUGCUGCCCUCUCCAG [hsa-miR-6787-3p],-24.6%
15,UGGGAACUUAGUAGAGGUUUAA [hsa-miR-4471],5.31%
16,CAGGGGGACUGGGGGUGAGC [hsa-miR-6794-5p],5.76%
17,CUCCUGGGGCCCGCACUCUCGC [hsa-miR-1343],-9.67%
18,CGGGGCCAUGGAGCAGCCUGUGU [hsa-miR-6762-5p],-11.4%
19,UGGGGCUAGUGAUGCAGGACG [hsa-miR-4489],25.8%
20,UCCCUCGCCUUCUCACCCUCAG [hsa-miR-6803-3p],-18.8%

row,Sequence,one-nucleolus phenotype percent effect
1,ACCUGAGGUUGUGCAUUUCUAA [hsa-miR-544b],20.9%
2,CAGGGAACCAGUUGGGGCUU [hsa-miR-6822-5p],20.9%
3,UUAGUGAAGGCUAUUUUAAUU [hsa-miR-3606-5p],6.89%
4,CCUGUCUGUGCCUGCUGUACA [hsa-miR-3120-5p],-1.5%
5,CAUCUUCCAGUACAGUGUUGGA [hsa-miR-141-5p],-9.13%
6,UGGUGCGGAGAGGGCCCACAGUG [hsa-miR-675-5p],29.5%
7,AGAGGUAGUAGGUUGCAUAGUU [hsa-let-7d-5p],-18.5%
8,UAAUACUGUCUGGUAAAACCGU [hsa-miR-429],-19%
9,AGGAGAUCCUGGGUU [hsa-miR-3676-5p],18.3%
10,UCCCUGAGACCCUUUAACCUGUGA [hsa-miR-125a-5p],-18.8%
11,AGGAGGACAAGUUGUGGGAU [hsa-miR-7154-3p],39.7%
12,UAUUCAGGAAGGUGUUACUUAA [hsa-miR-506-5p],-9.8%
13,AUAUGGGUUUACUAGUUGGU [hsa-miR-3115],27.9%
14,UUAGACCUAGUACACGUCCUU [hsa-miR-3684],-19.2%
15,CAGGCACGGGAGCUCAGGUGAG [hsa-miR-3622a-5p],42.3%
16,AAUUUGGUUUCUGAGGCACUUAGU [hsa-miR-5002-5p],27.3%
17,UGCAAAAGUAAUUGCAGUUUUUG [hsa-miR-548aj-5p],-16.2%
18,UGGUAGAGCUGAGGACA [hsa-miR-4451],-7.47%
19,UUUCUCUCUCCACUUCCUCAG [hsa-miR-6833-3p],-1.79%
20,GAGGAAACUGAAGCUGAGAGGG [hsa-miR-4496],-13.7%

row,Sequence,one-nucleolus phenotype percent effect
1,UAGGGGUGGGGGAAUUCAGGGGUGU [hsa-miR-6782-5p],-3.68%
2,CUGGCCCUCUCUGCCCUUCCGU [hsa-miR-328],-8.63%
3,CAGCAGGGGAGAGAGAGGAGUC [hsa-miR-6510-5p],20.8%
4,AGGGACGGGACGCGGUGCAGUG [hsa-miR-92b-5p],2.12%
5,CAGCCCUCCUCCCGCACCCAAA [hsa-miR-4687-5p],-10.4%
6,GUGCUUCAUCGUAAUUAACCUUA [hsa-miR-3977],2.65%
7,AGGGUGUGUGUGUUUUU [hsa-miR-4455],3.96%
8,UCCCAGGGUCUGGUCAGAGUUG [hsa-miR-6764-5p],29.5%
9,UCCAGGCAGGAGCCGGACUGGA [hsa-miR-4673],-17.9%
10,AACACUGGCCUUGCUAUCCCCA [hsa-miR-6757-3p],30.1%
11,UCUAGGCUGGUACUGCUGA [hsa-miR-645],-11.5%
12,CCCAGUGUUUAGACUAUCUGUUC [hsa-miR-199b-5p],-14.4%
13,GAGUGGAUAGGGGAGUGUGUGGA [hsa-miR-6849-5p],-18.4%
14,ACUGGCAUGCUGCAUUUAUAUA [hsa-miR-4799-3p],-19.8%
15,ACUGGCCUGGGACUACCGG [hsa-miR-3176],-13.2%
16,UAGCGGGGAUUCCAAUAUUGG [hsa-miR-4781-5p],46.5%
17,AGAUUGUUUCUUUUGCCGUGCA [hsa-miR-4445-5p],34.7%
18,UAUAGAGAGCAGGAAGAUUAAUGU [hsa-miR-3976],-15.3%
19,AAAAGUAAUCACUGUUUUUGCC [hsa-miR-548y],-21.4%

# — the supplement of paper PMC10899765
